Experiment [1] concerns the target T1, Tau 407-421 peptide (Truncated Asp421 Epitope of Tau).
T1 construct: Immobilized in the ELISA, analyte in the Biacore analysis
T1 peptide: HLSNVSSTGSIDMVD
The experiment can be described thus: Biacore (SPR), peptide as analyte.

For experiment [2], the target named is T2, Tau 407-423 peptide (non-truncated Asp421 epitope).
T2 construct: Immobilized in the ELISA, analyte in the Biacore analysis
T2 peptide: HLSNVSSTGSIDMVDSP
The experiment in a line: Biacore (SPR), peptide as analyte. On the technique in general: In SPR one partner is held on a chip, and binding of the other changes the refractive index at the surface.

Experiment [3] has as its target T2, Tau 407-423 peptide (non-truncated …). The experiment can be described thus: Biacore, peptide as analyte.
In experiment [4] the target is T1, Tau 407-421 peptide (Truncated Asp421 …). The experiment can be described thus: ELISA. The source says:
(§1) The data thus confirms the ability of Antibodies 1G11A10, 5G2A3 and 5G2G6 to immunospecifically bind to the Truncated Asp421 Epitope of Tau.
(In general: ELISA stands for enzyme-linked immunosorbent assay.)

In experiment [5] the target is T2, Tau 407-423 peptide (non-truncated …). The experiment in a line: ELISA, immobilized peptide.
Source text: as §1

Where a chain is given by its changes, count along the chain named.

Usually Kd stands for the equilibrium constant for the complex coming apart. A higher Kd goes with weaker binding.

B1: Antibody 5G2A3 (antibody, V domains shown)
VH: EVKLVESGGGLVKPGGSLTLSCAASGFTFSSYAMSWVRQTPEKSLEWVASISSGGNTFYPDTVKGRFTISRDNARNILYLQMSGLRSEDTAIYYCARRGDPNMITTLFGYWGQGTLVTISA
VL: DVLMTQTPLSLPVSLGDQASISCRSSQSILHRNGNTYLDWFLLKPGQSPKLLIYKVSNRFSGVPDRFSGSGSGTDFTLKISRVEAEDLGVYYCFQGSHVPWTFGGGTKLEIK
notes: Hybridoma-derived monoclonal antibody; also called 5G2A3/5G2G6
As to B1, the dissociation constant Kd was 0.00746 µM in experiment [1] and 5.07 µM in experiment [2].

B2: Antibody 1G11A10 (antibody, V domains shown)
VH: EVKLVESGGGLMKPGGSLKLSCAASGFTFSSYAMSWVRQSPEKRLEWVASISSGGQTYSPDSVKGRFTISRDNARNILYLQMRNLRSEDTAMYYCASRGDPTMTATLFVYWGQGTLVTVS
VL: B1 VL with L30I, H31N, R32S, D39E, F41Y, L43Q, A85T, V90I
notes: Hybridoma-derived monoclonal antibody
For the molecule B2, in experiment [3], the binding result was “no binding”. In experiment [1], the dissociation constant (Kd) worked out at 1.07 µM.

B3: Antibody 1G10D2 (antibody, V domains shown)
VH: EVKLVESGGDLVTPGGSLKVSCAASGLTFSDSAMSWVRLTPEKRLEWVASISTGGATYYPDGLKGRFTISRDDARNILFLQMNSLRSEDTAMYYCTRRGVSSGNLFTYWGQGTLVTVSA
VL: B1 VL with H31N, R32S, D39E, F41Y, L43Q
Regarding B3, the binding result was “binds” in experiment [4] and “no binding” in experiment [5].

B4: Antibody 5B3C11 (antibody, V domains shown)
VH: EVQLVESGGGLVKPGGSLKLSCAASGFTFSNYALSWVRQTPEKRLEWVASISSGGNTYYPDSVKGRFTISRDNARNILYLQMSSLRSEDTAMFYCTSRGDTTLITTLFTYWGQGTLVTVSA
VL: B1 VL with S26N, R32S, F41Y, L43Q, K79R, V99I
notes: Tested as hybridoma culture supernatant
With B4, the binding result in experiment [5] is given as “no binding”.

Source of the values: US20210198349A1 (NEW YORK UNIVERSITY, published 2021).
